167 variants from the RNAGym collection of RNA variant scans (doi:10.7554/elife.90254) can be followed below.

B1: OR4K15 (parent)
chain: GUUAACGGUCAUAGGCCAUGGAAACUAGGAGCACCAUUUCGCUGCCAGUGAAGAAAUGAACAAAGAAAAUCUGGGCCAGGCAGGCAUCAAAAGAAAUAGUCUUGCGCUCAACCAGAAAGUCUGUAAUCAUUUUAAGGGUA

The variants in the series derive from B1. Nature of the series: self-cleavage, relative activity (ratio to wild type); higher = more cleavage; in vitro, sequencing; the parent is a self-cleaving ribozyme.
Turning to C107A A111G, the self-cleavage was 0.02.
Regarding C105G A117G, the self-cleavage was determined as 0.02.
The value for U100C U131C was 2.14.
Regarding U103C U130C, the self-cleavage is 0.57.
The value for U102C U130A was 1.61; that for U100A U131C was 0.36; that for G106A A125U was 0.05.
The value for U103A A135G was 0.73.
For the variant U100A A129G, the self-cleavage was determined as 0.23.
U103C U108A: the self-cleavage worked out at 0.02.
The value for U108C C113A was 0.01; that for U100C C109U was 0.89.
C101U G106A: the self-cleavage turned out to be 0.
On to U100C U120C, for which the self-cleavage was 2.65.
The value for U103C A125U was 1.45; that for U108C A114G was 0.01.
With U108C A114U the figure was 0.01.
The value for G106U U108A was 0.01.
Regarding A96G U127A, the self-cleavage came to 2.73.
The value for A96G U127C was 0.58; that for A98G U124A was 0.07.
The value for U97A U133C was 2.13; that for U97C U102C was 2.38; that for U97C U102A was 0.47.
In the case of A96G U132C, the self-cleavage worked out at 1.21.
The value for A96G U132G was 1.85; that for U102C A116U was 0.23.
With U102C A116G the figure was 0.7; with C107U U108C, 0.02; with A98G U103C, 0.05.
Regarding U102C A110G, the self-cleavage was found to be 0.15.
With U102C A110C, the self-cleavage is 0.4.
As for U100A A134G, the self-cleavage was found to be 0.37.
The value for U103G was 0.03.
With U103C the figure was 0.7.
In the case of U103A, the self-cleavage was 0.39.
The value for U103C A135U was 1.34; that for U100C A111G was 0.01; that for A98G A135G was 0.83.
The value for U102C A135G was 1.6; that for U103A A114G was 0.45; that for G106A A111G was 0.01.
Consider G106A A111U, for which the self-cleavage turned out to be 0.
With U102C the figure was 1.82; with U102A, 0.74.
U102G: the self-cleavage was 0.58.
The value for U108A A135U was 0.02; that for C109A U122C was 0.28; that for U103C A114G was 0.51.
With U100C U130C the figure was 2.02; with U100G U108A, 0.02.
As for U103C A111G, the self-cleavage turned out to be 0.02.
Regarding U103C U120C, the self-cleavage stood at 0.4.
In the case of U103C U120G, the self-cleavage came to 0.4.
The value for C107G U108A was 0.01; that for U108C U131A was 0.02; that for U103G G119A was 0.01.
U97C A126U: the self-cleavage was 0.44.
With C101U U131C the figure was 0.27; with U102A A114G, 0.43; with U102A G115A, 0.06.
The value for U103C U124C was 0.96; that for U103C A118U was 0.3.
With A98U A118G the figure was 1.83; with C101A U122C, 0.13; with U108A U130G, 0.
Turning to U103A A118C, the self-cleavage was found to be 0.53.
With A98G A118G the figure was 0.26.
Turning to U102A G119A, the self-cleavage is 1.23.
On to U103C A129U, for which the self-cleavage was 0.29.
With U108A A125G, the self-cleavage was 0.
The value for U97C A117G was 2.06.
With U103C A117C the figure was 0.29.
Consider U103C A117G, for which the self-cleavage was 0.71.
Consider U100C U122G, for which the self-cleavage is 2.48.
U100C U122A: the self-cleavage came to 2.11.
Regarding U100C U122C, the self-cleavage came out at 1.66.
The value for U97C A110U was 1.02.
For the variant C107A A118U, the self-cleavage was found to be 0.
For the variant G104U A140G, the self-cleavage was determined as 0.
Turning to U102C U103A, the self-cleavage amounted to 0.2.
The value for A98G U102A was 0.15; that for A98U U124C was 2.17; that for A96U U127C was 1.7.
The value for U97A A111G was 0.03; that for U100C C107G was 0.01; that for U108C A126U was 0.01.
The value for U108C A126G was 0.
As for U108G A135G, the self-cleavage stood at 0.01.
With U100C U102C, the self-cleavage stood at 1.62.
The value for U103A U133C was 0.61; that for U108C A117C was 0.06.
Take U108C A117G: the self-cleavage worked out at 0.01.
For the variant U108A A129G, the self-cleavage was 0.
Regarding A98G A114U, the self-cleavage worked out at 0.02.
The value for A98G A117G was 0.81; that for A98G A111G was 0.01.
G104A U132C: the self-cleavage is 0.04.
The value for U102C C107U was 0.01; that for G104A A116U was 0; that for U108C G115A was 0.
As to U102A A140U, the self-cleavage stood at 1.14.
With U102A A140G the figure was 1.02; with A96G U108G, 0.03; with U102A A116C, 0.21.
The value for C107U A118G was 0.
With C107U A118U, the self-cleavage stood at 0.01.
The value for C105U U132C was 0.16.
In the case of A96U A126G, the self-cleavage came out at 1.58.
The value for U103A A126G was 0.34; that for U102A U130C was 0.43; that for U102A U130A was 0.32.
The value for C105U A118G was 0.04; that for U103A U131G was 0.22.
The value for U102C A126U was 1.39.
On to U102C A126G, for which the self-cleavage is 1.89.
With U103C U122C the figure was 0.55; with U102A U127C, 0.74; with U97A A140G, 1.98.
With U102C A134G the figure was 1.14.
In the case of U97C G115U, the self-cleavage was found to be 0.03.
In the case of U100C A126G, the self-cleavage worked out at 1.86.
With A98U G115A the figure was 0.1; with A98G A140G, 0.69; with G104A A111G, 0.01.
Consider A96G U131C, for which the self-cleavage was 1.73.
With U100A the figure was 0.61; with U100C, 2.09; with U100G, 1.24.
Take C105U A111G: the self-cleavage is 0.02.
Consider C105U, for which the self-cleavage was 0.16.
On to C105A, for which the self-cleavage came out at 0.03.
The value for C105G was 0.02.
Consider U100C G137A, for which the self-cleavage was 2.22.
With C101A, the self-cleavage came out at 0.21.
The value for C101U was 0.41; that for U103C U127C was 0.26; that for U103C U127A was 1.27.
The value for U103C U139C was 1.15; that for U103C U139A was 1.06.
With A98G U133C the figure was 0.65; with A98G U133A, 0.24.
With C105A U131C, the self-cleavage is 0.05.
With U102A U122A the figure was 1.28.
In the case of U108C A116G, the self-cleavage was found to be 0.01.
The value for U108C A116U was 0.
In the case of G106U U122C, the self-cleavage came out at 0.
With U103G G104A the figure was 0.59; with U102C U108A, 0.01; with U102C U108C, 0.01.
The value for U100C G115U was 0.71; that for U100A U139C was 0.83.
The value for U97A was 1.75.
As for U97C, the self-cleavage amounted to 0.71.
In the case of U97G, the self-cleavage worked out at 1.77.
The value for C107U A135G was 0.01.
The value for C105A U122A was 0; that for U108C A135U was 0.01; that for G106U A114G was 0.
With U97A A114G the figure was 0.64.
U103A A140U: the self-cleavage was 0.46.
With U102A U124C the figure was 0.88.
The value for U97C A134U was 1.69; that for C107A A114U was 0.
The value for U100C U127C was 1.61; that for C109A A117G was 0.59.
As to U108C U139C, the self-cleavage stood at 0.01.
